Laboratory results reported in US20210181204A1 (SYNGENTA PARTICIPATIONS, published 2021).

What was measured:
[1] = target: T1, mCry3A insecticidal protein (Bacillus thuringiensis subsp. …, UniProt P0A379 48-644, limits assumed); assay: direct ELISA, coated protein, SA-AP, 405 nm
T1 construct: also called modified Cry3A
T1 sequence: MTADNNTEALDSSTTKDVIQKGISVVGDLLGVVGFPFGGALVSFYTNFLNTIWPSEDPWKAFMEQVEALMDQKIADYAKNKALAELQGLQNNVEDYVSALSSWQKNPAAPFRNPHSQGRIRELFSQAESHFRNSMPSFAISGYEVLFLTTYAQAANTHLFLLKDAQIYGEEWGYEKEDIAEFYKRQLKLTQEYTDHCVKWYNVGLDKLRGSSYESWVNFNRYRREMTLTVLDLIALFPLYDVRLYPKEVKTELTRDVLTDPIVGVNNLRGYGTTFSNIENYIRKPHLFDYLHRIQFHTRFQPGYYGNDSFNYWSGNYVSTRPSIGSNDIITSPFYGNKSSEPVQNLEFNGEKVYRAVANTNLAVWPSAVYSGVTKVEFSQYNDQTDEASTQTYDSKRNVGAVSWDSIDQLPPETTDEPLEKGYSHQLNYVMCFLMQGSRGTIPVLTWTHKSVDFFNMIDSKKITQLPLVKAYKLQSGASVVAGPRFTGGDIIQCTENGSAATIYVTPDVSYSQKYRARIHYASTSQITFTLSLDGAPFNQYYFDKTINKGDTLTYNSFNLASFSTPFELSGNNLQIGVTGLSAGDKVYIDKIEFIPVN

[2] = target: Cry1Aa insecticidal protein (Bacillus thuringiensis subsp. aizawai, UniProt P0A367 12-1176); assay: direct ELISA, coated protein, SA-AP, 405 nm
[3] = target: eCry3.1Ab hybrid insecticidal protein; assay: direct ELISA, coated protein, SA-AP, 405 nm
[4] = target: Cry1Ab.1Ca insecticidal protein; assay: direct ELISA: protein coated at 500 ng/ml, 10 nM tagged synNAPS with SA-AP
[5] = target: T2, Cry1Ab insecticidal protein (Bacillus thuringiensis, UniProt P0A370 1-615); assay: as above
[6] = target: Cry1Ai insecticidal protein; assay: as above
[7] = target: T2, Cry1Ab insecticidal protein; assay: Bio-Layer Interferometry, target 15.6 nM to 1 uM
[8] = target: T2, Cry1Ab insecticidal protein; assay: direct ELISA on coated Cry1Ab, RGS-His HRP
[9] = target: T2, Cry1Ab insecticidal protein; assay: direct ELISA: Cry1Ab coated at 1 ug/ml, RGS-His HRP detection
[10] = target: Cry1Ab.1Ca insecticidal protein; assay: direct ELISA, coated protein, SA-AP, 405 nm
[11] = target: T2, Cry1Ab insecticidal protein; assay: direct ELISA, coated protein, SA-AP, 405 nm
[12] = target: Cry1Ai insecticidal protein; assay: direct ELISA, coated protein, SA-AP, 405 nm
[13] = target: T1, mCry3A insecticidal protein; assay: direct ELISA: protein coated at 500 ng/ml, 10 nM tagged synNAPS with SA-AP
[14] = target: T1, mCry3A insecticidal protein; assay: Bio-Layer Interferometry, target 15.6 nM to 1 uM
[15] = target: eCry3.1Ab hybrid insecticidal protein; assay: Bio-Layer Interferometry, target 15.6 nM to 1 uM
[16] = target: T1, mCry3A insecticidal protein; assay: direct ELISA on coated mCry3A
[17] = target: T1, mCry3A insecticidal protein; assay: direct ELISA: mCry3A coated at 1 ug/ml, RGS-His HRP detection

B1: synNAPS-4tag ligand (designed binder)
chain: MRGSHHHHHHGSVKVKFKYKGEEKEVDTSKISYVQRAGKSVYFNYDDNGKTGGGRVFEKDAPKELLDMLARAEREKKLGSGLNDIFEAQKIEWH
modifications: in vivo biotinylation (E. coli BirA strain) on the C-terminal avidin-tag
notes: also called tagged synNAPS 4
- binding result [1]: no binding (tested: 10 nM)
- binding result [2]: no binding (tested: 10 nM)
- binding result [3]: no binding (tested: 10 nM)
- Binding to Insecticidal Protein (read at 405 nm) [4]: 0.75 absorbance 405 nm
- Binding to Insecticidal Protein (read at 405 nm) [5]: 1.75 absorbance 405 nm
- Binding to Insecticidal Protein (read at 405 nm) [6]: 2.6 absorbance 405 nm

B2: synNAPS-4 ligand (designed binder)
chain: MVKVKFKYKGEEKEVDTSKISYVQRAGKSVYFNYDDNGKTGGGRVFEKDAPKELLDMLARAEREKK
- binding result [7]: binds

B3: synNAPS-5 ligand (designed binder)
chain: MVKVKFVLKGEEKEVDTSKITYVARYGKFVQFDYDDNGKFGAGVVLEKDAPKELLDMLARAEREKK
- binding result [7]: binds

B4: synNAPS2 variant R44A (designed binder)
chain: RGSHHHHHHGSMVKVKFKYKGEEKEVDTSKIVWIGRFGKSVYFRYDDNGKTGAGAVYEKDAPKELLDMLARAEREKK
- binding result [8]: no binding
- Binding (OD 450 nm) [9]: 0 OD 450 nm

B5: synNAPS2 variant S29A (designed binder)
chain: RGSHHHHHHGSMVKVKFKYKGEEKEVDTSKIVWIGRFGKAVYFRYDDNGKTGAGRVYEKDAPKELLDMLARAEREKK
- binding result [8]: no binding
- Binding (OD 450 nm) [9]: 0 OD 450 nm

B6: synNAPS2 variant Y31A (designed binder)
chain: RGSHHHHHHGSMVKVKFKYKGEEKEVDTSKIVWIGRFGKSVAFRYDDNGKTGAGRVYEKDAPKELLDMLARAEREKK
- binding result [8]: no binding
- Binding (OD 450 nm) [9]: 0 OD 450 nm

B7: synNAPS2 variant W22A (designed binder)
chain: RGSHHHHHHGSMVKVKFKYKGEEKEVDTSKIVAIGRFGKSVYFRYDDNGKTGAGRVYEKDAPKELLDMLARAEREKK
- binding result [8]: no binding
- Binding (OD 450 nm) [9]: 0 OD 450 nm

B8: synNAPS-8tag ligand (designed binder)
chain: MRGSHHHHHHGSVKVKFHGRGEEKEVDTSKIFWVYRDGKRVLFRYDDNGKRGFGSVPEKDAPKELLDMLARAEREKKLGSGLNDIFEAQKIEWH
modifications: chain 1: biotinylated in vivo on the C-terminal avidin-tag (E. coli BirA strain). The patent does not name the residue; it is presumably the tag's Lys, pos 90, written K.
notes: also called tagged synNAPS 8
- binding result [2]: no binding (tested: 10 nM)
- binding result [10]: no binding (tested: 10 nM)
- binding result [11]: no binding (tested: 10 nM)
- binding result [3]: no binding (tested: 10 nM)
- binding result [12]: no binding (tested: 10 nM)
- Binding to Insecticidal Protein (read at 405 nm) [13]: 1.6 absorbance 405 nm

B9: synNAPS-6 ligand (designed binder)
chain: MVKVKFMRWGEEKEVDTSKITYVTRWGKTVIFYYDDNGKKGHGSVLEKDAPKELLDMLARAEREKK
- binding result [14]: binds

B10: synNAPS-14 ligand (designed binder)
chain: MVKVKFKYKGEEKEVDTSKIIFVYRFGKFVMFIYDDNGKTGHGDVREKDAPKELLDMLARAEREKK
- binding result [15]: binds

B11: synNAPS-3 ligand (designed binder)
chain: MVKVKFRWGGEEKEVDTSKIWYVARVGKWVLFGYDDNGKRGAGRVREKDAPKELLDMLARAEREKK
- binding result [7]: binds

B12: synNAPS-12 ligand (designed binder)
chain: MVKVKFKLTGEEKEVDTSKIQWVARFGKFVDFLYDDNGKTGWGWVYEKDAPKELLDMLARAEREKK
- binding result [15]: binds

B13: synNAPS-1 ligand (designed binder)
chain: MVKVKFGPWGEEKEVDTSKIVDVWRWGKYVDFFYDDNGKVGIGSVTEKDAPKELLDMLARAEREKK
- binding result [7]: binds

B14: synNAPS-3tag ligand (designed binder)
chain: MRGSHHHHHHGSVKVKFRWGGEEKEVDTSKIWYVARVGKWVLFGYDDNGKRGAGRVREKDAPKELLDMLARAEREKKLGSGLNDIFEAQKIEWH
modifications: in vivo biotinylation (E. coli BirA strain) on the C-terminal avidin-tag
notes: also called tagged synNAPS 3
- binding result [1]: no binding (tested: 10 nM)
- binding result [2]: no binding (tested: 10 nM)
- binding result [10]: no binding (tested: 10 nM)
- binding result [3]: no binding (tested: 10 nM)
- Binding to Insecticidal Protein (read at 405 nm) [5]: 0.75 absorbance 405 nm
- Binding to Insecticidal Protein (read at 405 nm) [6]: 1.5 absorbance 405 nm

B15: synNAPS-11 ligand (designed binder)
chain: MVKVKFGLGGEEKEVDTSKIRRVLRLGKLVSFTYDDNGKIGLGDVHEKDAPKELLDMLARAEREKK
- binding result [15]: binds

B16: synNAPS-10 ligand (designed binder)
chain: MVKVKFLMKGEEKEVDTSKIKWVNRHGKYVAFYYDDNGKTGGGEVREKDAPKELLDMLARAEREKK
- binding result [15]: binds

B17: synNAPS9 variant Q8A (designed binder)
chain: RGSHHHHHHGSMVKVKFAAGGEEKEVDTSKIYRVPRHGKIVFFMYDDNGKGGFGHVTEKDAPKELLDMLARAEREKK
- binding affinity as percent of SEQ ID NO:17 [16]: ~112%
- Binding (OD 450 nm) [17]: 2.8 OD 450 nm

B18: synNAPS9 variant M33A (designed binder)
chain: RGSHHHHHHGSMVKVKFAQGGEEKEVDTSKIYRVPRHGKIVFFAYDDNGKGGFGHVTEKDAPKELLDMLARAEREKK
- binding affinity as percent of SEQ ID NO:17 [16]: ~112%
- Binding (OD 450 nm) [17]: 2.8 OD 450 nm

B19: synNAPS9 variant T46A (designed binder)
chain: RGSHHHHHHGSMVKVKFAQGGEEKEVDTSKIYRVPRHGKIVFFMYDDNGKGGFGHVAEKDAPKELLDMLARAEREKK
- binding affinity as percent of SEQ ID NO:17 [16]: ~112%
- Binding (OD 450 nm) [17]: 2.8 OD 450 nm

B20: synNAPS-7tag ligand (designed binder)
chain: MRGSHHHHHHGSVKVKFKVHGKEKEVDTSKILAVARWGKAVIFAYDDNGKHGRGQVSEKDAPKELLDMLARAEREKKLGSGLNDIFEAQKIEWH
modifications: in vivo biotinylation (E. coli BirA strain) on the C-terminal avidin-tag
notes: also called tagged synNAPS 7
- binding result [2]: no binding (tested: 10 nM)
- binding result [10]: no binding (tested: 10 nM)
- binding result [11]: no binding (tested: 10 nM)
- binding result [3]: no binding (tested: 10 nM)
- binding result [12]: no binding (tested: 10 nM)
- Binding to Insecticidal Protein (read at 405 nm) [13]: 0.7 absorbance 405 nm

B21: synNAPS-5tag ligand (designed binder)
chain: MRGSHHHHHHGSVKVKFVLKGEEKEVDTSKITYVARYGKFVQFDYDDNGKFGAGVVLEKDAPKELLDMLARAEREKKLGSGLNDIFEAQKIEWH
modifications: in vivo biotinylation (E. coli BirA strain) on the C-terminal avidin-tag
notes: also called tagged synNAPS 5
- binding result [1]: no binding (tested: 10 nM)
- binding result [2]: no binding (tested: 10 nM)
- binding result [3]: no binding (tested: 10 nM)
- binding result [12]: no binding (tested: 10 nM)
- Binding to Insecticidal Protein (read at 405 nm) [4]: 1.6 absorbance 405 nm
- Binding to Insecticidal Protein (read at 405 nm) [5]: 1.1 absorbance 405 nm

B22: synNAPS-8 ligand (designed binder)
chain: MVKVKFHGRGEEKEVDTSKIFWVYRDGKRVLFRYDDNGKRGFGSVPEKDAPKELLDMLARAEREKK
- binding result [14]: binds

B23: synNAPS-7 ligand (designed binder)
chain: MVKVKFKVHGKEKEVDTSKILAVARWGKAVIFAYDDNGKHGRGQVSEKDAPKELLDMLARAEREKK
- binding result [14]: binds
